In the supplement of paper PMC9876800:

Tested on: peptide library, one residue held at a place counted from the S/T acceptor
Assay: relative phosphorylation of the sub-library (ratio to the mean residue at this position); higher = residue favoured
Details: human
How it was run: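 Purified recombinant kinases were reacted in 384-well plates with biotinylated degenerate peptide sub-libraries, each having one residue fixed at one position around a central Ser/Thr. The reaction mix contained 50 μM peptide plus 50 μM ATP spiked with γ-32P-ATP and ran for 90 min under kinase-specific conditions. Relative sub-library phosphorylation, taken from densitometry of phosphorimaged streptavidin membrane spots, is a ratio to the mean residue at that position.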

Sequence of PRKCQ, construct: Full length (Q04759 whole entry, looked up): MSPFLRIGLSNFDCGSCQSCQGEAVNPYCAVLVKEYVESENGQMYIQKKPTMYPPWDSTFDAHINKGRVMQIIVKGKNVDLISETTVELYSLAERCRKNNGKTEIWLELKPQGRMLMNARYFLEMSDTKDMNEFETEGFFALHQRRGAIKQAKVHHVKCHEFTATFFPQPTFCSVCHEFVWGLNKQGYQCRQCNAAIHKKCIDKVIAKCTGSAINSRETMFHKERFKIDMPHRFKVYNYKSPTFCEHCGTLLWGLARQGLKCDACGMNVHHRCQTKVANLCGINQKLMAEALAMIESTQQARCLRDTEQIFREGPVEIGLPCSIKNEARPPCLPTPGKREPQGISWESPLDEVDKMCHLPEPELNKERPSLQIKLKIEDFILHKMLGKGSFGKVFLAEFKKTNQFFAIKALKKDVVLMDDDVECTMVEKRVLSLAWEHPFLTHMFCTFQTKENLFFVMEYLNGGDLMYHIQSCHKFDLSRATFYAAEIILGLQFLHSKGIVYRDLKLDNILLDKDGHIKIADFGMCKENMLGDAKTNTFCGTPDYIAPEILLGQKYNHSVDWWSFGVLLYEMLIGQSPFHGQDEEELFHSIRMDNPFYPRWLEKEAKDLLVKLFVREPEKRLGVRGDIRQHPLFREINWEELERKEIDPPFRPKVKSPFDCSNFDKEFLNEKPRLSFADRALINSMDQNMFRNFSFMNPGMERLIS
Sequence of RIPK3, construct: aa1-313 (Q9Y572 1-313, looked up): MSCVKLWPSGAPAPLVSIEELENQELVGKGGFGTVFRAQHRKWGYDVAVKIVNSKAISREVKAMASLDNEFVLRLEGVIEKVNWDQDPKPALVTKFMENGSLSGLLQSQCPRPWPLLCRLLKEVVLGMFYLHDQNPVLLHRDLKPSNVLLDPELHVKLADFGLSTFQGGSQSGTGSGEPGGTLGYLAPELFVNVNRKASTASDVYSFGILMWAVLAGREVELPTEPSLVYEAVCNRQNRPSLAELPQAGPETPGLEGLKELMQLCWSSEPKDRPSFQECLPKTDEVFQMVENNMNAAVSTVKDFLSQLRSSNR

PIM3, construct: Full length (from UniProt Q86V86)
relative phosphorylation
Details	at +1	at +2	at +3	at +4	at -1	at -2	at -3	at -4	at -5
A fixed	1.07	0.944	0.735	0.954	0.952	0.672	0.676	0.984	1.16
D fixed	0.918	0.986	1.47	1.17	0.769	0.637	0.718	1.07	0.989
E fixed	1.44	0.858	1.26	1.11	0.996	0.621	0.674	1.14	0.697
F fixed	0.469	0.684	0.673	0.752	0.608	0.761	0.393	0.62	0.693
G fixed	3.27	0.888	1.21	1.37	0.819	0.746	0.848	1.45	1.25
H fixed	0.811	1.84	1.2	1.03	1.02	2.91	0.985	1.1	1.32
I fixed	0.715	0.499	0.602	0.728	0.454	0.427	0.249	0.628	0.533
K fixed	0.959	1.23	1.24	1.09	1.78	1.14	1.64	1.24	1.72
L fixed	0.571	0.624	0.587	0.823	0.693	0.473	0.309	0.567	0.52
M fixed	0.84	0.648	0.733	0.827	0.713	0.566	0.403	0.992	0.539
N fixed	1.21	1.57	1.24	1.16	1.46	1.23	0.74	0.975	0.869
P fixed	0.416	1.11	0.828	1.47	2.12	1.1	1.33	1.42	1
Q fixed	1.33	1.16	1.19	1.14	1.46	1.07	0.856	1.08	0.926
R fixed	0.955	1.44	1.53	0.79	1	2.1	5.83	1.57	2.42
V fixed	0.828	0.7	0.69	0.859	0.697	0.456	0.372	0.657	0.714
W fixed	0.553	0.981	0.931	0.934	0.529	0.905	0.575	0.775	0.961
Y fixed	0.634	0.824	0.87	0.795	0.926	1.19	0.409	0.744	0.688
pThr fixed	1.27	1.04	1.04	1.68	0.585	0.694	0.78	0.779	0.67
pTyr fixed	0.783	0.886	1.11	1.02	1.21	0.975	0.904	1.03	1.03

PRKCB, construct: Full length (from UniProt P05771)
relative phosphorylation
Details	at +1	at +2	at +3	at +4	at -1	at -2	at -3	at -4	at -5
A fixed	0.614	0.584	0.815	1.08	1.16	1.17	0.836	1.3	1.35
D fixed	0.203	0.219	0.509	0.604	0.516	0.531	0.379	0.694	0.677
E fixed	0.288	0.177	0.503	0.546	0.489	0.468	0.438	0.654	0.676
F fixed	0.881	0.35	0.602	0.636	0.435	0.597	0.639	0.72	0.947
G fixed	0.585	0.365	1.09	1.22	1.65	1.37	0.95	1.57	1.45
H fixed	0.861	1.39	1.36	1.37	1.24	1.23	1.47	1.17	1.26
I fixed	1.05	0.413	0.529	0.559	0.214	0.323	0.214	0.393	0.452
K fixed	2.49	3.97	2.36	2.46	2.15	1.93	1.91	1.64	1.67
L fixed	0.864	0.469	0.796	0.644	0.563	0.448	0.371	0.517	0.71
M fixed	1.61	0.604	0.68	0.705	0.779	0.662	0.606	0.898	0.684
N fixed	0.691	0.909	1.09	1.13	1.34	1.52	1.07	1.11	1.04
P fixed	0.289	0.305	0.606	1.27	1.09	0.87	0.983	1.2	1.22
Q fixed	1.45	0.727	1.1	1.2	1.04	1.47	1.08	1.24	1
R fixed	2.18	4.58	2.22	1.46	2.25	2.3	4.21	1.78	1.44
V fixed	1.11	0.443	0.627	0.683	0.496	0.462	0.354	0.504	0.695
W fixed	0.813	0.627	1.03	0.83	0.556	0.933	0.68	0.933	1.19
Y fixed	1.03	0.86	1.07	0.618	1.04	0.717	0.805	0.679	0.531
pThr fixed	0.842	0.433	0.621	0.672	0.372	0.756	0.666	0.932	0.844
pTyr fixed	0.519	0.272	0.651	0.434	0.732	0.712	0.693	0.806	0.983

PRKCQ, construct: Full length (from UniProt Q04759)
relative phosphorylation
Details	at +1	at +2	at +3	at +4	at -1	at -2	at -3	at -4	at -5
A fixed	0.568	0.491	0.841	0.988	1.06	0.884	0.837	1.17	1.13
D fixed	0.139	0.187	0.373	0.434	0.378	0.333	0.326	0.642	0.786
E fixed	0.184	0.14	0.362	0.385	0.315	0.305	0.344	0.725	0.58
F fixed	1.93	0.626	0.883	0.614	0.853	0.689	0.694	0.748	0.981
G fixed	0.411	0.376	0.887	1.1	1.6	1.22	0.871	1.41	1.21
H fixed	0.815	1.45	1.33	1.6	1.08	1.15	1.33	1.2	1.14
I fixed	1.46	0.612	0.762	0.629	0.309	0.348	0.329	0.522	0.769
K fixed	1.63	3.19	1.91	2.4	1.89	1.89	1.72	1.51	1.58
L fixed	1.16	0.553	0.969	0.652	0.64	0.472	0.462	0.553	0.857
M fixed	1.68	0.819	0.85	0.721	0.861	0.612	0.583	0.784	0.682
N fixed	0.441	0.873	0.782	1.01	1.21	1.11	0.915	1.05	0.899
P fixed	0.185	0.274	0.557	1.23	0.941	0.462	0.706	1.1	1.02
Q fixed	0.952	0.748	0.929	0.944	1.09	1.22	0.982	0.996	0.862
R fixed	1.83	3.66	2.14	1.88	2.29	4.01	4.83	1.95	1.88
V fixed	1.35	0.598	0.776	0.688	0.539	0.47	0.435	0.669	0.775
W fixed	1.07	0.859	1.31	0.884	0.728	1.01	0.814	1.22	1.12
Y fixed	1.21	1.54	1.33	0.827	1.2	0.822	0.816	0.757	0.734
pThr fixed	0.427	0.275	0.349	0.36	0.266	0.481	0.571	0.689	0.572
pTyr fixed	0.351	0.255	0.379	0.263	0.543	0.497	0.566	0.574	0.645

RIPK3, construct: aa1-313 (from UniProt Q9Y572)
relative phosphorylation
Details	at +1	at +2	at +3	at +4	at -1	at -2	at -3	at -4	at -5
A fixed	0.854	0.673	0.422	1.03	0.762	0.87	1.02	1.03	1.16
D fixed	0.247	0.425	0.266	0.816	0.678	0.699	0.711	0.73	0.818
E fixed	0.459	0.727	0.224	0.625	0.421	0.515	0.692	0.766	0.668
F fixed	2.07	0.902	3	1.07	0.662	0.66	0.785	1.1	1.04
G fixed	0.895	0.746	0.646	1.21	0.466	1.03	1.65	1.17	1.13
H fixed	0.695	1.3	0.615	0.944	1.28	1.29	1.19	1.05	1.22
I fixed	1.6	1.43	1.67	0.998	1.08	0.747	0.832	0.949	1.04
K fixed	1.02	1.36	0.424	1.24	2.04	0.953	1.37	1.36	1.43
L fixed	0.935	1.61	2.54	0.991	1.27	1.2	0.922	0.873	0.912
M fixed	1.62	1.05	1.58	0.989	1.1	0.922	0.977	1.13	0.958
N fixed	0.493	0.977	0.474	0.915	1.21	1.15	0.946	1.03	0.848
P fixed	0.148	0.548	0.253	1.22	0.783	1.73	0.992	0.862	0.894
Q fixed	1.32	1.04	0.399	0.938	0.888	0.847	0.979	0.818	0.826
R fixed	1.76	1.31	0.669	1.15	1.73	2.22	1.48	1.23	1.12
V fixed	1.26	1.14	0.661	0.863	1.11	0.697	0.732	0.969	0.991
W fixed	0.81	0.603	1.68	1.11	0.623	0.727	0.944	0.999	0.986
Y fixed	0.822	1.16	1.48	0.898	0.893	0.736	0.778	0.937	0.966
pThr fixed	0.844	1.28	0.557	1.02	1.1	1.32	1.22	1.27	1.06
pTyr fixed	0.422	0.937	0.518	0.722	0.785	0.648	0.892	0.859	0.733
